Here are results for six compounds from article PMC5891007, “The crystal structure of XdpB, the bacterial old yellow enzyme, in an FMN-free form” (PLoS ONE, 2018).

Data set [1] concerns the target T1, XdpB (XdpBwt) (Agrobacterium tumefaciens, UniProt A0A0A0VDJ9). Put plainly: nanoDSF melting temperature. Type of data set: binding. The arrangement: full length with N-terminal His tag (XdpBwt), made in E. coli, Ni-NTA and gel filtration; in vitro flavinated with FMN for kinetics; C-terminal residue Asn365. To be noted: apo form Tm 38.9 °C, 1 °C/min. A general note: DSF heats the sample and reads unfolding from a dye or from intrinsic fluorescence.

For data set [2], the target named is T1, XdpB (XdpBwt). Put plainly: spectrophotometric NADH oxidation at […] nm, Lineweaver-Burk. To be noted: read-out: Km^GTN; NADH co-substrate; pH 8; 25 °C; in vitro flavinated, recalculated to FMN saturation.
Data set [3] has as its target OPR3 (Solanum lycopersicum) (UniProt Q9FEW9). The conditions noted are these: cited from earlier work.
Data set [4] addresses XdpA, short chain dehydrogenase of the xdo operon (Agrobacterium bohemicum R89-1). Put plainly: SEC; gel filtration chromatography, with SDS PAGE for the subunit. (In general: Size exclusion chromatography separates by hydrodynamic size, large species first.)
Data set [5] deals with NC(=O)C1=CN([C@@H]2O[C@H](COP(=O)(O)OP(=O)(O)OC[C@H]3O[C@@H](n4cnc5c(N)ncnc54)[C@H](O)[C@@H]3O)[C@@H](O)[C@H]2O)C=CC1. Nature of the data set: purified protein. To be noted: NADH co-substrate, pH 8, 25 °C, in vitro flavinated, recalculated to FMN saturation, except NADH varied (0.015 to 0.3 mM), co-substrate GTN.
The target of data set [6] is XdpR, TetR family transcriptional regulator of the xdo operon (Agrobacterium bohemicum R89-1). Nature of the data set: SEC + native gel or EMSA; gel filtration; native (blue native, 7% PAGE) and SDS electrophoresis.

T1 sequence (A0A0A0VDJ9 entry or part of it): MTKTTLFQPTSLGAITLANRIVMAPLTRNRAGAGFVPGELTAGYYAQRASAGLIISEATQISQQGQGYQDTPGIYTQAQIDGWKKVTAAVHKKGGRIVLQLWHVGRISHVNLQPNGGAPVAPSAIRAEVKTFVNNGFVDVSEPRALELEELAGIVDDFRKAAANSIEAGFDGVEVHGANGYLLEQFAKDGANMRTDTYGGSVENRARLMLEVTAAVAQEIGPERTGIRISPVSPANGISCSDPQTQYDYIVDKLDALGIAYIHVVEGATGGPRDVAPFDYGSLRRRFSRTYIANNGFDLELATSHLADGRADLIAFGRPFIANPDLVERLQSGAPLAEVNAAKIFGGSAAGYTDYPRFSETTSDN
OPR3, sequence (Q9FEW9 whole entry): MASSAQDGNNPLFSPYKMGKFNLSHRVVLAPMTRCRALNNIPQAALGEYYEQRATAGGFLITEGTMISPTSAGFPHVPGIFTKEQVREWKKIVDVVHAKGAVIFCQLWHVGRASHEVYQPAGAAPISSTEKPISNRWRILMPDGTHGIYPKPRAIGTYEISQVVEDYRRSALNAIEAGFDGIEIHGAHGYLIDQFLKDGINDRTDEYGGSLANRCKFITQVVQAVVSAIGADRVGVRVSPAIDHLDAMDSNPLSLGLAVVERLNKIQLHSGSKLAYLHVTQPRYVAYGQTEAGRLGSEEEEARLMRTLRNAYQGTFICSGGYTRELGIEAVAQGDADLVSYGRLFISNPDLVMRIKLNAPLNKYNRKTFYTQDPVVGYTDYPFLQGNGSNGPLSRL

Regarding `Cc1cc2nc3c(=O)[nH]c(=O)nc-3n(C[C@H](O)[C@H](O)[C@H](O)COP(=O)(O)O)c2cc1C` [FMN, flavin mononucleotide], the “melting temperature of in vitro flavinated form” value on XdpB (XdpBwt) [1] came to 39.8 °C.

What is called Km is the substrate concentration at which the rate is half of its maximum. In the case of `O=[N+]([O-])OCC(CO[N+](=O)[O-])O[N+](=O)[O-]` [GTN, glycerol trinitrate], the Michaelis constant (Km) at XdpB (XdpBwt) [2] was 460 ± 132 µM. As usually defined, the Kd is a measure of binding affinity in units of concentration. Turning to OPR3 (from UniProt Q9FEW9), in data set [3], the Kd was 30 µM. What is called stoichiometry N is a count of units in the complex or per binding partner. With “XdpA, short chain dehydrogenase of the xdo operon (enzyme)”, the stoichiometry N in data set [4] was determined as 2. For the compound “XdpB (XdpBwt) (Agrobacterium tumefaciens)”, the Michaelis constant (Km) in data set [5] was 6 ± 1 µM. Regarding “XdpR, TetR family transcriptional regulator of the xdo operon (natural protein)”, the stoichiometry N in data set [6] stood at 2.
